These are literature values, as cited in article PMC8226686.

The data set deals with insulin receptor (Homo sapiens) (UniProt P06213).
Sequence of UniProt P06213 (P06213 763-1382): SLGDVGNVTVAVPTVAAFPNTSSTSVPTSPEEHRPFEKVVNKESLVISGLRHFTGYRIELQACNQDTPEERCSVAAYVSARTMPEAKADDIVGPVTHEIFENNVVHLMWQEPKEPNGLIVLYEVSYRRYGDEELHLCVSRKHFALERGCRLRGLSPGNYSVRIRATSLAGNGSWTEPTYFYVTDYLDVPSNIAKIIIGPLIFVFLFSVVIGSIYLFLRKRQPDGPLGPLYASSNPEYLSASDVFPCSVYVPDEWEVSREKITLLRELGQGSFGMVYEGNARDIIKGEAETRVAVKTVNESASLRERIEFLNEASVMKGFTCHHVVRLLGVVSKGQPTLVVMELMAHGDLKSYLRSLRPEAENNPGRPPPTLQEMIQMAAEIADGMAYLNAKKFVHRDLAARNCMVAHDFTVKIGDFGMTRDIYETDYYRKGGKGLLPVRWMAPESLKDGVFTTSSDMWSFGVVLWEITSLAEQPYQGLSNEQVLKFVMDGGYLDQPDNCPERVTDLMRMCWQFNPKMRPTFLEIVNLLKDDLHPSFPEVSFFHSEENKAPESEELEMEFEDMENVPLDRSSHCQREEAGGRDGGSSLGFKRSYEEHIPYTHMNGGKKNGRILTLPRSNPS

Sequence of insulin (P01308 90-110): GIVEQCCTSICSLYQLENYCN

Turning to insulin (from UniProt P01308), the dissociation constant (Kd) – broadly, a measure of binding affinity in units of concentration – is 2.2 nM.
